Assay results taken from patent US20210380703A1.
Substitutions are numbered along the chain they refer to.

B1: 375_G10 (antibody, V domains shown)
VH: EVQLLESGGGLVQPGGSLRLSCAASGFTFSSYGMNWVRQAPGKGLEWVSSINYNGGYKSYADSVKGRFTISRDNSKNTLYLQMNSLRAEDTAVYYCARSATWHDTHLDYWGQGTLVTVSS
VL: DIQMTQSPSSLSASVGDRVTITCRASQSIVTYLNWYQQKPGKAPKLVIYAATSRHSGVPSRFSGSGSGTDFTLTISSLQPEDFATYYCQQSYDTPLTFGGGTKVEIK
B2: 373_D11 (antibody, V domains shown)
VH: B1 VH with N35H, S49A, S50G, K58T, S99A
VL: B1 VL with V30L, L33V, V47L, H55A, T94N
B3: 370_A10 (antibody, V domains shown)
VH: B1 VH with S31D, G33S, G55S, S59G
VL: B1 VL with V30L, T31S, L33V, V47L, R54L, H55A
B4: 368_H03 (antibody, V domains shown)
VH: B1 VH with S30D, S31D, G33S, N35H, S49A, K58T, S59G, S99A
VL: B1 VL with V30L, T31S, L33V, A51V, D93S, T94N
B5: 368_D06 (antibody, V domains shown)
VH: B1 VH with S50N, K58T, S59G, S99A
VL: B1 VL with V30L, T31S, L33V, D93E, T94N
B6: 374_B01 (antibody, V domains shown)
VH: B1 VH with S30D, N35H, S49A, S50G, G55S, K58T, S99A
VL: B1 VL with V30L, T31S, V47L, T52S, R54L, H55Q, T94S
B7: 371_D05 (antibody, V domains shown)
VH: B1 VH with S30D, S31D, N35H, S50G, K58T, S99A
VL: B1 VL with V30L, V47L, T52S, R54L, H55Q, T94S
B8: 368_G08 (antibody, V domains shown)
VH: B1 VH with S30D, S31D, G55S
VL: B1 VL with T31S, L33V, V47L, D93N, T94N
B9: 371_B11 (antibody, V domains shown)
VH: B1 VH with G33S, N35H, S49A, G55S, K58T, S99A
VL: B1 VL with V30L, V47L, H55A, D93E, T94L
B10: 369_A04 (antibody, V domains shown)
VH: B1 VH with S30D, N35H, S49A, S99A
VL: B1 VL with T31S, L33V, R54L, H55A, T94L
B11: 369_C06 (antibody, V domains shown)
VH: B1 VH with G33S, N35H, S99A
VL: B1 VL with V30L, T31S, L33V, V47L, H55A, T94S
B12: 375_D02 (antibody, V domains shown)
VH: B1 VH with G33S, S50N, K58T, S99A
VL: B1 VL with V30L, V47L, T52S, R54L, H55Q, D93E, T94L
B13: 370_B06 (antibody, V domains shown)
VH: B1 VH with N35H, S49A, S50G, K58T, S99A
VL: B1 VL with T31S, L33V, H55A, D93E
B14: 370_E12 (antibody, V domains shown)
VH: B1 VH with S30D, N35H, S49A, S50G, K58T, S99A
VL: B1 VL with V30L, T31S, L33V, V47L, H55A, D93E, T94N
B15: 371_A05 (antibody, V domains shown)
VH: B1 VH with N35H, S50N, S99A
VL: B1 VL with V30L, V47L, H55A, Y92D, D93N, T94L
B16: 368_E08 (antibody, V domains shown)
VH: B1 VH with S30D, N35H, S49A, S50N, G55S, K58T, S59G, S99A
VL: B1 VL with V30L, T31S, L33V, R54L, D93E
B17: 370_H05 (antibody, V domains shown)
VH: B1 VH with N35H, S50N, K58T, S99A
VL: B1 VL with V30L, T31S, V47L, T52S, R54L, H55Q, Y92D, D93S, T94L
B18: 367_H04 (antibody, V domains shown)
VH: B1 VH with G33S, K58T
VL: B1 VL with V30L, L33V, V47L, Y92D, D93N, T94N
B19: 368_B12 (antibody, V domains shown)
VH: B1 VH with S30D, N35H, S50G, G55S, K58T, S99A
VL: B1 VL with T31S, L33V, V47L, H55A, T94L
B20: 368_G07 (antibody, V domains shown)
VH: B1 VH with G33S, N35H, K58T
VL: B1 VL with T31S, L33V, H55A
B21: 369_B07 (antibody, V domains shown)
VH: B1 VH with S30D, N35H, S49A, S50N, S99A
VL: B1 VL with T31S, L33V, R54L, H55A, T94L
B22: 371_F07 (antibody, V domains shown)
VH: B1 VH with N35H, S49A, S50G, K58T, S99A
VL: B1 VL with V30L, V47L, R54L, H55A, Y92D, D93S, T94N
B23: 373_G06 (antibody, V domains shown)
VH: B1 VH with N35H, S49A, G55S, K58T, S59G, S99A
VL: B1 VL with V30L, T31S, L33V, V47L, R54L, H55A, D93N, T94L
B24: 375_F01 (antibody, V domains shown)
VH: B1 VH with G33S, G55S, K58T, S59G
VL: B1 VL with T31S, H55A, T94N
B25: 369_A12 (antibody, V domains shown)
VH: B1 VH with G33S, N35H, S49A, G55S, K58T, S59G, S99A
VL: B1 VL with V30L, V47L, T94L
B26: 368_H10 (antibody, V domains shown)
VH: B1 VH with G33S, G55S, S59G
VL: B1 VL with T31S, L33V, A51V, R54L, H55A, D93E
B27: 374_A10 (antibody, V domains shown)
VH: B1 VH with N35H, S50G, K58T, S99A
VL: B1 VL with V30L, T31S, L33V, V47L, H55A
B28: 375_G12 (antibody, V domains shown)
VH: B1 VH with S30D, N35H, K58T
VL: B1 VL with T31S, L33V, V47L
B29: 368_G11 (antibody, V domains shown)
VH: B1 VH with S30D, N35H, S50G, G55S, S99A, H106A
VL: B1 VL with V30L, V47L, H55A, Y92D, D93N
B30: 366_A02 (antibody, V domains shown)
VH: B1 VH with S30D, S49A, G55S, S59G, S99A, T101N
VL: B1 VL with T31S, L33V, V47L, H55A, T94L
B31: 369_C09 (antibody, V domains shown)
VH: B1 VH with N35H, K58T, S59G, S99A
VL: B1 VL with T31S, T94L
B32: 375_C03 (antibody, V domains shown)
VH: B1 VH with S30D, G33S, N35H, S50G, K58T, S99A
VL: B1 VL with V30L, T31S, L33V, H55A, D93E, T94S
B33: 368_C07 (antibody, V domains shown)
VH: B1 VH with N35H, S49A, S50G, G55S, K58T, S99A
VL: B1 VL with T31S, L33V, H55A, D93E, T94N
B34: 368_C12 (antibody, V domains shown)
VH: B1 VH with S30D, N35H, S49A, K58T, S99A
VL: B1 VL with V30L, V47L, H55A, Y92D, D93S, T94N
B35: 374_B07 (antibody, V domains shown)
VH: B1 VH with N35H, S99A
VL: B1 VL with V30I, T31S, V47L, R54L, H55A, D93E, T94S
B36: 365_G07 (antibody, V domains shown)
VH: B1 VH with S30D, N35H, K58T, S99A, T101N, H106A
VL: B1 VL with T31S, V47L, H55A, T94N
B37: 369_E03 (antibody, V domains shown)
VH: B1 VH with N35H, S49A, S50G, K58T, S99A
VL: B1 VL with V30L, T31S, L33V, V47L, R54L, H55A, D93E, T94N
B38: 368_B04 (antibody, V domains shown)
VH: B1 VH with S30D, N35H, K58T, S99A
VL: B1 VL with T31S, H55A, D93E, T94N
B39: 371_B02 (antibody, V domains shown)
VH: B1 VH with S30D, S50N, K58T, S99A
VL: B1 VL with V30L, L33V, R54L, H55A, D93N, T94N
B40: 373_B01 (antibody, V domains shown)
VH: B1 VH with S30D, N35H, S50G, S99A
VL: B1 VL with V30L, T31S, L33V, H55A, T94L
B41: 374_A12 (antibody, V domains shown)
VH: B1 VH with S30D, N35H, K58T, S99A
VL: B1 VL with V30L, V47L, H55A, Y92D, D93S, T94N
B42: 372_D07 (antibody, V domains shown)
VH: B1 VH with S49A, S50G, K58T, S99A
VL: B1 VL with V30L, T31S, V47L, H55A, D93E, T94S
B43: 371_C02 (antibody, V domains shown)
VH: B1 VH with S30D, N35H, S49A, S50G, G55S, K58T, S59G, S99A
VL: B1 VL with V30L, L33V, V47L, T52S, R54L, H55Q
B44: 370_A08 (antibody, V domains shown)
VH: B1 VH with S30D, G33S, G55S, K58T, S59G
VL: B1 VL with H55A, T94L
B45: 367_H08 (antibody, V domains shown)
VH: B1 VH with S30D, K58T, S99A
VL: B1 VL with V30L, L33V, V47L, D93N, T94L
B46: 369_C11 (antibody, V domains shown)
VH: B1 VH with S31D, N35H, S49A, S50G, K58T, S59G, S99A
VL: B1 VL with V30L, T31S, H55A
B47: 374_E06 (antibody, V domains shown)
VH: B1 VH with S30D, G33S, G55S, S59G
VL: B1 VL with V30L, T31S, V47L, H55A, T94L
B48: 369_B08 (antibody, V domains shown)
VH: B1 VH with S30D, N35H, K58T, S99A
VL: B1 VL with V30L, T31S, L33V, V47L, H55A, D93E, T94S

The binders below were run against human Fc (human) (assay: ELISA, negative control).

optical density	Binder
0.175 OD	B1
0.364 OD	B2
0.434 OD	B3
0.343 OD	B4
0.265 OD	B5
0.173 OD	B6
0.339 OD	B7
0.329 OD	B8
0.549 OD	B9
0.353 OD	B10
0.414 OD	B11
0.191 OD	B12
0.441 OD	B13
0.656 OD	B14
0.369 OD	B15
0.255 OD	B16
0.364 OD	B17
0.289 OD	B18
0.567 OD	B19
0.29 OD	B20
0.319 OD	B21
0.425 OD	B22
0.196 OD	B23
0.166 OD	B24

optical density	Binder
0.461 OD	B25
0.281 OD	B26
0.23 OD	B27
0.199 OD	B28
0.306 OD	B29
0.336 OD	B30
0.32 OD	B31
0.217 OD	B32
0.282 OD	B33
0.346 OD	B34
0.25 OD	B35
0.331 OD	B36
0.63 OD	B37
0.304 OD	B38
0.449 OD	B39
0.197 OD	B40
0.308 OD	B41
0.472 OD	B42
0.372 OD	B43
0.319 OD	B44
0.312 OD	B45
0.378 OD	B46
0.191 OD	B47
0.309 OD	B48
